From PMC6038053, “Structural and Functional Insights Into Lysostaphin–Substrate Interaction” (Frontiers in Molecular Biosciences, 2018)
“Also recorded” adds a separate entry of the source. Read-outs that look alike come from different tables or passages of the source. Non-standard residues stand in square brackets, D forms with d. Residues, ends and D or L forms follow the SMILES beside them.

Experiments:
lysostaphin CWT domain = target: T1, lysostaphin CWT domain (Staphylococcus simulans, UniProt P10547); assay type: binding
T1 construct: DNA encoding the CWT domain (residues 402-493) was amplified; GST (from the pGEX-2T vector); made in house; host or cells: E. coli BL21 (DE3)
Method: The pentaglycine binding site on the CWT domain was determined by comparing the ^1H, ^15N, and ^1H, ^13C HSQC spectra of full-length lysostaphin and CWT domain acquired in the presence and absence of a large amount, ~170 molar excess, of KGGGGG and GGGGGK hexapeptides (Sigma-Aldrich). […] CSPs, calculated as Δδ = (ΔδH^2+(0.154 × ΔδN)^2)^1/2, were plotted as a function of the molar ratio of titrated ligand to CWT domain. Dissociation constants for individual residues were obtained by nonlinear least squares fitting, as implemented in the program xcrvfit (www.bionmr.ualberta.ca/bds/software/xcrvfit). Site-specific dissociation constants were calculated as averages of dissociation constants of individual residues within the site. In all binding site studies protein to zinc concentration ratio was 1:1.

[1] = system: CWT binding to S. aureus cells; set-up: method as in Gründling and Schneewind, 2006; settings: excess of pentaglycine; ref Gründling and Schneewind, 2006; cited from earlier work
[2] = effect of presence of lysine, relative to pentaglycine
[3] = Pentaglycine cleavage by lysostaphin monitored by 1H NMR; assay type: biochemical; settings: for Relative activity: PBS pH 7.2, 21 h, 37 °C
Method: Pentaglycine cleavage by lysostaphin was monitored by ^1H NMR as described previously (Raulinaitis et al., [2017a]). Reactions took place in phosphate buffer saline (PBS), pH 7.2, with >90% D2O by volume as a solvent and final volumes were 600 μL. Initial pentaglycine (Sigma-Aldrich) and lysostaphin concentrations were 1 mM and 2.25 μM, respectively. Metal ions (ZnCl2, CoCl2, CuCl2, and MnCl2) were added as needed. Residual activity of lysostaphin “apo” form was taken into account in activity calculations. Measurements were carried out by using a Bruker Avance III 600 MHz spectrometer, equipped with a QCI ^1H/^13C/^15N/^31P cryoprobe and a SampleJet automated sample changer. The preheater of the sample changer was used for sample incubation when product formation was measured as a time series with 3-h intervals for 48 h. Single time-point samples were incubated in an incubator for 21 h and reactions were quenched by heating at 90°C for 15 min before proton spectra acquisitions at 37°C. The data were processed with Bruker TopSpin 3.5 software.
Proton NMR allows for direct and real-time reaction monitoring devoid of intricacies of cellular suspension (Raulinaitis et al., [2017a]). Scission of pentaglycine by lysostaphin was monitored for 48 h by ^1H NMR and under conditions of this study its catalytic rate appeared to be limited only by saturation with the substrate (Supplementary Figure 4). The substrate turnover rate by the enzyme in the first 3 h of the reaction is estimated to be in the order of 0.006 s^−1.
Figure 4 Lysostaphin activity dependence on zinc, cobalt, copper and manganese cofactors. Lysostaphin was incubated with pentaglycine (2.25 μM and 1 mM concentrations, respectively) in PBS buffer, pH 7.2, for 21 h at 37°C. Total cofactor ratios to protein were 1:1 and 3:1, EDTA excess was 70-fold. […] Activity was adjusted to one zinc-bound lysostaphin as 100% reference point. Bars represent standard error of the mean (S.E.M) of at least three independent measurements. TEXT PRINTED IN THE PICTURE: 1 Zn: Relative activity, %: 100.0 | 3 Zn: Relative activity, %: 79.8 | 1 Cu: Relative activity, %: 96.4 | 3 Cu: Relative activity, %: 183.3 | 1 Mn: Relative activity, %: 38.8 | 3 Mn: Relative activity, %: 40.3 | 1 Co: Relative activity, %: 79.1 | 100 EDTA: Relative activity, %: 12.8

[4] = target: T2, lysostaphin cell wall targeting (CWT) domain (residues 402-493) (Staphylococcus simulans, UniProt P10547 402-493); experiment: NMR titration; 1H,15N and 1H,13C HSQC spectra of the CWT domain with and without ~170 molar excess of hexapeptide; chemical shift perturbations; protein to zinc 1:1; settings: both partners purified
T2 construct: also called targeting domain; SH3b domain; source: E. coli BL21 (DE3), purified (Glutathione Sepharose, thrombin release, gel filtration on Superdex 75)

[5] = ~80 molar excess of the peptide, data not shown

T1 sequence (P10547 402-493): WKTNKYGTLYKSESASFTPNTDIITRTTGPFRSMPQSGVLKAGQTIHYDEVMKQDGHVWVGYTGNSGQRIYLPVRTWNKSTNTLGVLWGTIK
T2 sequence (P10547 402-493): as above

## N-acetylmuramyl-L-alanyl-D-isoglutamine hydrate [N-acetylmuramyl-L-A-D-γ-Q hydrate]
Lysostaphin CWT domain; [5]
  CSPs: very small CSPs
  affinity of CWT domain: no significant affinity

## pentaglycine
Lysostaphin CWT domain; abstract / conclusions summary
  affinity of targeting (CWT) domain in words: very low affinity; also recorded: extremely low affinity
[1]
  blocking of CWT binding to S. aureus cells: cannot be blocked

## GGGGGK [G5K, pentaglycine lysine derivative, hexapeptide (Sigma-Aldrich)]
[2]
  solubility: significantly enhanced the solubility
Lysostaphin CWT domain; residues N405, Y411, G430-F432, V452, M453, Y472, ~170 molar excess
  Largest peak shifts, Δδ (CSP): ≥ 0.10 ppm

## Lysostaphin: S. simulans zinc-dependent endopeptidase with N-terminal catalytic domain and C-terminal cell wall targeting domain
[3]; 1 Co (1:1 cofactor to protein), adjusted to one zinc-bound lysostaphin = 100%, 2.25 μM lysostaphin, 1 mM pentaglycine, n ≥ 3
  Relative activity: 79.1%
[3]; 1 Cu (1:1 cofactor to protein), adjusted to one zinc-bound lysostaphin = 100%, 2.25 μM lysostaphin, 1 mM pentaglycine, n ≥ 3
  Relative activity: 96.4%
[3]; 1 Mn (1:1 cofactor to protein), adjusted to one zinc-bound lysostaphin = 100%, 2.25 μM lysostaphin, 1 mM pentaglycine, n ≥ 3
  Relative activity: 38.8%
[3]; 1 Zn (1:1 cofactor to protein), reference point 100%, 2.25 μM lysostaphin, 1 mM pentaglycine, at least three independent measurements
  Relative activity: 100.0%
[3]; 3 Cu (3:1 cofactor to protein), adjusted to one zinc-bound lysostaphin = 100%, 2.25 μM lysostaphin, 1 mM pentaglycine, n ≥ 3
  Relative activity: 183.3%
[3]; 3 Mn (3:1 cofactor to protein), adjusted to one zinc-bound lysostaphin = 100%, 2.25 μM lysostaphin, 1 mM pentaglycine, n ≥ 3
  Relative activity: 40.3%
[3]; 3 Zn (3:1 cofactor to protein), adjusted to one zinc-bound lysostaphin = 100%, 2.25 μM lysostaphin, 1 mM pentaglycine, n ≥ 3
  Relative activity: 79.8%
[3]; 100 EDTA (EDTA excess, residual activity), adjusted to one zinc-bound lysostaphin = 100%, 2.25 μM lysostaphin, 1 mM pentaglycine, n ≥ 3
  Relative activity: 12.8%
[3]; Cu^2+ in excess
  change of catalytic activity: activity increases
[3]; Mn^2+
  cofactor suitability for catalytic activity: weak cofactor
[3]; excess of zinc (second zinc bound by catalytic histidines H329 and H360)
  change of catalytic activity: reduces lysostaphin pentaglycine cleaving activity; also recorded: partial inhibition
[3]; first 3 h of the reaction, 1 mM pentaglycine, 2.25 μM lysostaphin, PBS pH 7.2, 37 °C, 1H NMR every 3 h for 48 h, estimated
  substrate turnover rate: ~0.006 s⁻¹
[3]; metal cations Zn^2+, Co^2+, and Cu^2+
  cofactor suitability for catalytic activity: suitable cofactors

## KGGGGG [KG5]
[2]
  solubility: significantly enhanced the solubility

## C[C@H](N)C(=O)N[C@H](CCC(=O)O)C(=O)N[C@@H](CCCCN)C(=O)NCC(=O)NCC(=O)NCC(=O)NCC(=O)NCC(=O)N[C@@H](C)C(=O)N[C@H](CCC(=O)O)C(=O)N[C@@H](CCCCN)C(=O)N[C@H](C)C(=O)O (H-A[dE]KGGGGGA[dE]K[dA]-OH; N-terminus and C-terminus assumed)
Lysostaphin CWT domain; ~24 molar excess
  CSPs: significant CSPs

B1: GGGGGK hexapeptide (peptide)
peptide: GGGGGK
notes: also called G5K; source: bought: Sigma-Aldrich
[4]
  Kd: > 10 mM
